Reference: US20160053277A1, “Compositions Having Dicamba Decarboxylase Activity and Methods of Use” (PIONEER HI-BRED INTERNATIONAL, INC., priority 2013, published 2016)

Tests used:
[1] = Shuffled variant libraries: 14CO2 capturing assay in 384-well format; conditions: decarboxylation activity (carbon dioxide released) compared with unmutated backbone protein SEQ ID NO 133 (DDEC0201)
[2] = Saturation mutagenesis of SEQ ID NO:109: dicamba decarboxylation activity of point mutants (carbon dioxide released); conditions: decarboxylation activity (carbon dioxide released) of point mutant compared with unmutated backbone protein; backbone SEQ ID NO: 109

B1: 201 (protein)
chain: MAQGKVALEEHFAIPETLQDSAGFVPGDYWKELQHRLLDIQDTRLKLMDAHGIETMILSLAAPAVQAIPDRRKAIEIARRANDFLAEECAKRPDRFLAFAALPLQDPDAATEELQRCVNDLGFVGALVNGFSVEGDGQTPLYYDLPQYRPFWGEVEKLDVPFYLHPRNPLPQDSRIYAGHPWLLGPTWAFAQETAVHALRLMASGLFDEHPRLNIILGHLGEGLPYMMYRIDHRIAWVKLPPRYPAKRRFMDYFNENFHITTSGNFRTQTLIDAILEIGADRILFSTDWPFENIDHAADWFNATSIAEADRVKIGRTNARRLFKLDGD
modifications: Dicamba decarboxylase variant
[1]
  Fold Activity: 1.5
[2]
  Fold Activity: 1.2

B2: 206 (protein)
chain: MAQGKVALEEHFAIPETLQDSAGFVPGDYWKELQHRLLDIQDTRLKLMDAHGIETMILSLAAPAVQAIPDRRKAIEIARRANDFLAEECAKRPDRFLAFAALPMQDVDAASEELQRCVNDLGFVGALVNGFSQEGDGQTPLYYDLPQYRPFWGEVEKLDVPFYLHPRNPLPQDSRIYDGHPWLLGPTWAFAQETAVHALRLMASGLFDEHPRLNIILGHLGEGLPYMMYRIDHRIAWVHEPPRYPAKRRFMDYFNENFHITTSGNFRTQTLIDAILEIGADRILFSTDWPFENIDHAAAWFNATSIAEADRLKIGRTNARRLFKLDLD
modifications: Dicamba decarboxylase variant
[1]
  Fold Activity: 1.3
[2]
  Fold Activity: 1.7

B3: 202 (protein)
chain: MAQGKVALEEHFAIPETLQDSAGFVPGDYWKELQHRLLDIQDTRLKLMDAHGIETMILSLAAPGVQAIPDRRKAIEIARRANDFLAEECAKRPDRFLAFAALPLQDPDAATEELQRCVNDLGFVGALVNGFSQEGDGQTPLYYDLPQYRPFWGEVEKLDVPFYLHPRNPLPQDSRIYDGHPWLLGPTWAFAQETAVHALRLMASGLFDEHPRLNIILGHMGEGLPYMMYRIDHRIAWVHEPPRYPAKRRFMDYFNENFHITTSGNFRTQTLIDAILEIGADRILFSTDWPFENIDHAADWFNATSIAEADRLKIGRTNARRLFKLDLD
modifications: Dicamba decarboxylase variant
[1]
  Fold Activity: 2.2
[2]
  Fold Activity: 1.4

B4: 204 (protein)
chain: MAQGKVALEEHFAIPETLQDSAGFVPGDYWKELQHRLLDIQDTRLKLMDAHGIETMILSLAAPAVQAIPDRVKAIEIARRANDMLAEECAKRPDRFLAFAALPLQDPDAATEELQRTVNDLGFVGALVNGFSQEGDGQTPLYYDLPQYRPFWGEVEKLDVPFYLHPRNPLPQDSRIYDGHPWLLGPTWAFAQETAVHALRLMASGLFDEHPRLNIILGHMGEGLPYMMYRIDHRIAWVHEPPRYPAKRRFMDYFNENFHITTSGNFRTQTLIDAILEIGADRILFSTDWPFENIDHAADWFNATSIAEADRLKIGRTNARRLFKLDGD
modifications: Dicamba decarboxylase variant
[1]
  Fold Activity: 1.0
[2]
  Fold Activity: 2

B5: 208 (protein)
chain: MAQGKVALEEHFAIPETLQDSAGFVPSDYLKELQHRLLDIQDTRLKLMDAHGIETMILSLAAPAVQAIPDRRKAIEIARRANDFLAEECAKRPDRFLAFAALPLQDPDAATEELQRCVNDLGFVGALVNGFSVEGDGQTPLYYDLPQYRPFWGEVEKLDVPFYLHPRNPLPQDSRIYDGHPWLLGPTWAFAQETAVHALRLMASGLFDEHPRLNIILGHLGEGLPYMMYRIDHRIAWVHEPPRYPAKRRFMDYFNENFHITTSGNFRTQTLIDAILEIGADRILFSTDWPFENIDHAADWFNATSIAEADRLKIGRTNARRLFKLDLD
modifications: Dicamba decarboxylase variant
[1]
  Fold Activity: 2.2
[2]
  Fold Activity: 1.5

B6: 207 (protein)
chain: MAQGKVALEEHFAIPETLQDSAGFVPGDYWKELQHRLLDIQDTRLKLMDAHGIETMILSLAAPAVQAIPDRRKAIEIARRANDFLAEECAKRPDRFLAFAALPLQDPDAATEELQRCVNDLGFVGALVNGFSVEGDGQTPLYYDLPQYRPFWGEVEKLDVPFYLHPRNPLPQDSRIYDGHPWLLGPTWAFAQETAVHALRLMASGLFDEHPRLNIILGHMGEGLPYMMYRIDHRIAWVHEPPRYPAKRRFMDYFNENFHITTSGNFRTQTLIDAILEIGADRILFSTDWPFENIDHAAAWFNATSIAEADRVKIGRTNARRLFKLDLD
modifications: Dicamba decarboxylase variant
[1]
  Fold Activity: 1.4
[2]
  Fold Activity: 1.3

B7: 205 (protein)
chain: MAQGKVALEEHFAIPETLNDSAGFVPGDYWKELQHRLLDIQDTRLKLMDAHGIETMILSLAAPAVQAIPDRRKAIEIARRANDFLAEECAKRPDRFLAFAALPLQDPDAATEELQRCVNDLGFVGALVNGFSQEGDGQTPLYYDLPQYRPFWGEVEKLDVPFYLHPRNPLPQDSRIYDGHPWLLGPTWAFAQETAVHALRLMASGLFDEHPRLNIILGHMGEGLPYMMYRIDHRIAWVHEPPRYPAKRRFMDYFNENFHITTSGNFRTQTLIDAILEIGADRILFSTDWPFENIDHAAAWFNATSIAEADRVKIGRTNARRLFKLDGD
modifications: Dicamba decarboxylase variant
[1]
  Fold Activity: 1.0
[2]
  Fold Activity: 1.3

B8: 209 (protein)
chain: MAQGKVALEEHFAIPETLNDSAGFVPGDYWKELQHRLLDIQDTRLKLMDAHGIETMILSLAAPAVQAIPDRRKAIEIARRANDFLAEECAKRPDRFLAFAALPLQDPDAATEELQRTVNDLGFVGALVNGFSVEGDGQTPLYYDLPQYRPFWGEVEKLDVPFYLHPRNPLPQDSRIYDGHPWLLGPTWAFAQETAVHALRLMASGLFDEHPRLNIILGHMGEGLPYMMYRIDHRIAWVHEPPRYPAKRRFMDYFNENFHITTSGNFRTQTLIDAILEIGADRILFSTDWPFENIDHAADWFNATSIAEADRVKIGRTNARRLFKLDGD
modifications: Dicamba decarboxylase variant
[1]
  Fold Activity: 1.3
[2]
  Fold Activity: 1.6

B9: 248 (protein)
chain: MAQGKVALEEHFAIPETLQDSAGFVPSEYLKELQHRLLDIQDTRLKLMDAHGIETMILSLAAPAVQAIPDRRKAIEIARRANDFLAEECAKRPDRFLAFAALPLQDPDAATEELQRTVNTLGFVGALVNGFSVEGDGQTPLYYDLPQYRPFWGEVEKLDVPFYLHPRNPLPQDSRIYDGHPWLLGPTWAFAQETAVHALRLMASGLFDEHPRLNIILGHMGEGLPYMMYRIDHRIAWVHEPPRYPAKRRFMDYFNENFHITTSGNFRTQTLIDAILEIGADRILFSTDWPFENIDHAADWFNATSIAEADRVKIGRTNARRLFKLDLD
modifications: Dicamba decarboxylase variant
[1]
  Fold Activity: 1.5
[2]
  Fold Activity: 2.3

B10: 210 (protein)
chain: MAQGKVALEEHFAIPETLQDSAGFVPGDYWKELQHRLLDIQDTRLKLMDAHGIGTMILSLAAPAVQAIPDRRKAIEIARRANDFLAEECAKRPDRFLAFAALPLQDPDAATEELQRCVNDLGFVGALVNGFSVEGDGQTPLYYDLPQYRPFWGEVEKLDVPFYLHPRNPLPQDSRIYDGHPWLLGPTWAFAQETAVHALRLMASGLFDEHPRLNIILGHMGEGLPYMMYRIDHRIAWVKLPPRYPAKRRFMDYFNENFHITTSGNFRTQTLIDAILEIGADRILFSTDWPFENIDHAADWFNATSIAEADRVKIGRTNARRLFKLDGD
modifications: Dicamba decarboxylase variant
[1]
  Fold Activity: 1.3
[2]
  Fold Activity: 1.8

B11: 250 (protein)
chain: MAQGKVALEEHFAIPETLQDSAGFVPGDYWKELQHRLLDIQDTRLKLMDAHGIETMILSLAAPAVQAIPDRRKAIEIARRANDMLAEECAKRPDRFLAFAALPLQDPDAATEELQRCVNDLGFVGALVNGFSQEGDGQTPLYYDLPQYRPFWGEVEKLDVPFYLHPRNPLPQDSRIYDGHPWLLGPTWAFAQETAVHALRLMASGLFDEHPRLNIILGHMGEGLPYMMYRIDHRIAWVHEPPRYPAKRRFMDYFNENFHITTSGNFRTQTLIDAILEIGADRILFSTDWPFENIDHAADWFNATSIAEADRVKIGRTNARRLFKLDGD
modifications: Dicamba decarboxylase variant
[1]
  Fold Activity: 0.8
[2]
  Fold Activity: 0.7

B12: 203 (protein)
chain: MAQGKVALEEHFAIPETLQDSAGFVPGDYWKELQHRLLDIQDTRLKLMDAHGIETMILSLAAPAVQAIPDRRKAIEIARRANDFLAEECAKRPDRFLAFAALPLQDPDAATEELQRCVNDLGFVGALVNGFSVEGDGQTPLYYDLPQYRPFWGEVEKLDVPFYLHPRNPLPQDSRIYDGHPWLLGPTWAFAQETAVHALRLMASGLFDEHPRLNIILGHMGEGLPYMMYRIDHRIAWVHEPPRYPAKRRFMDYFLENFHITTSGNFRTQTLIDAILEIGADRILFSTDWPFENIDHAADWFNATSIAEADRLKIGRTNARRLFKLDGA
modifications: Dicamba decarboxylase variant
[1]
  Fold Activity: 2.3
[2]
  Fold Activity: 1.1

B13: 249 (protein)
chain: MAQGKVALEEHFAIPETLQDSAGFVPGDYWKELQHRLLDIQDTRLKLMDAHRIETMILSLAAPAVQAIPDRRKAIEIARRANDILAEECAKRPDRFLAFAALPMQDVDAATEELQRCVNDLGFVGALVNGFSQEGDGQTPLYYDLPQYRPFWGEVEKLDVPFYLHPRNPLPQDSRIYDGHPWLLGPTWAFAQETAVHALRLMASGLFDEHPRLNIILGHMGEGLPYMMYRIDHRIAWVHQPPRYPAKRRFMDYFNENFHITTSGNFRTQTLIDAILEIGADRILFSTDWPFENIDHAADWFNATSIAEADRVKIGRTNARRLFKLDGD
modifications: Dicamba decarboxylase variant
[1]
  Fold Activity: 0.9
[2]
  Fold Activity: 2.6
